From patent US20230265179A1 (TWIST BIOSCIENCE, published 2023)

T1: IL1RL1 over-expressed on Expi293 cells (UniProt Q01638 19-556, limits assumed)
T1 construct: whole, on cells; Target of the flow cytometry MFI ratio (over-expressing cells over parent cells); also called cytokine over-expressing Expi293 cells
T1 sequence (looked up): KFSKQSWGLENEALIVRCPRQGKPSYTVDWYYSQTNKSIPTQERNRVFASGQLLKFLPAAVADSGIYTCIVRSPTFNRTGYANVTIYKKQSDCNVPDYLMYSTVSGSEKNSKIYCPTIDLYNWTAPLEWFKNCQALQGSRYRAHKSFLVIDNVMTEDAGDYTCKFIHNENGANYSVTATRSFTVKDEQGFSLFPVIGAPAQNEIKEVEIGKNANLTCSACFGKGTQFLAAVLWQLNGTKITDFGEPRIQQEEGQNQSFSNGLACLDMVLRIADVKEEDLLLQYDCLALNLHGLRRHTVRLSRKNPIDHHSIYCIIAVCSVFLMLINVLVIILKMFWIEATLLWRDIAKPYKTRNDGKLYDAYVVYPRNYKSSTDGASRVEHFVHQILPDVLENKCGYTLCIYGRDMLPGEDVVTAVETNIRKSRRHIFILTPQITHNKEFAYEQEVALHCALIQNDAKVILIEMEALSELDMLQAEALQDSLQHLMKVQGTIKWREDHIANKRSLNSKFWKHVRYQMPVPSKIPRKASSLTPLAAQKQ

T2: IL1RL1 (UniProt Q01638 19-328, limits assumed)
T2 construct: SPR analyte
T2 sequence (looked up): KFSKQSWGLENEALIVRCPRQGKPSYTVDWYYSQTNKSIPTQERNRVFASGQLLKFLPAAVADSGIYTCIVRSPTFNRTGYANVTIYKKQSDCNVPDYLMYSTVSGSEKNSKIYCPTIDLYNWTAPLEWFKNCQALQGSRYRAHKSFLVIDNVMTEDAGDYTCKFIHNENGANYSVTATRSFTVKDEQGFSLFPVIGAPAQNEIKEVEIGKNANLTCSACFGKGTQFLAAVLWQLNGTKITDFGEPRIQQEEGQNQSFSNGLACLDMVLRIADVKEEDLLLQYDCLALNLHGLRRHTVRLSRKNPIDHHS


Assays:
[1] = target: T1, IL1RL1 over-expressed on Expi293 cells; assay: flow cytometry, 100 nM antibody, over-expressing Expi293 / parent cells
Method: All incubations and washes were in buffer containing PBS+1% BSA. MFI Ratio is defined by the mean fluorescence intensity (MFI) of the cytokine over-expressing Expi293 cell over the Expi293 parent cell. […] EC50 was calculated in GraphPad Prism.

[2] = target: T2, IL1RL1; assay: SPR (Carterra LSA), antibody amine-coupled, 1:1 model;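 note: HC30M sensor chip at 25 °C in HBS-TE, analyte at rising concentrations in buffer containing 0.5 mg/mL BSA, 5 min association then 15 min dissociation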
Method: SPR experiments were performed on a Carterra LSA SPR biosensor equipped with a HC30M chip at 25° C. in HBS-TE. Antibodies were diluted to 10 μg/mL and amine-coupled to the sensor chip by EDC/NHS activation, followed by ethanolamine HCl quenching. Increasing concentrations of analyte were flowed over the sensor chip in HBS-TE with 0.5 mg/mL BSA with 5-minute association and 15-minute dissociation. Following each injection cycle the surface was regenerated with 2× 30-second injections of IgG elution buffer (Thermo). Data were analyzed in Carterra's Kinetics Tool software with 1:1 binding model.

Binder | 100 nM FACS (MFI Ratio) [1] [MFI ratio] | Kd [2] [nM] | koff [2] [s⁻¹] | kon [2] [M⁻¹ s⁻¹]
IL1RL1-20 (Fc fusion, not shown: a dimerising Fc or GST, VHH-Fc on IgG2 Fc) VHH: EVQLVESGGGLVQPGGSLRLSCAASGFSLDDRVMGWFRQAPGKEREFVAGITLGGSTSYADSVKGRFTISADNSKNTAYLQMNSLKPEDTAVYYCAAAPVPWGTRPSLLTYDWGQGTLVTVSS | 396 | 0.302 | 2.92e-05 | 96600
IL1RL1-15 (Fc fusion, not shown: a dimerising Fc or GST, VHH-Fc on IgG2 Fc) VHH: EVQLVESGGGLVQPGGSLRLSCAASGRTYSISAMGWFRQAPGKEREWVSSIGIAGTPTFYADSVKGRFTISADNSKNTAYLQMNSLKPEDTAVYYCAAGVTGGAAYGWGQGTLVTVSS | 331 | 3.23 | 0.00041 | 127000
IL1RL1-17 (Fc fusion, not shown: a dimerising Fc or GST, VHH-Fc on IgG2 Fc) VHH: EVQLVESGGGLVQPGGSLRLSCAASGRDLDYYAMGWFRQAPGKEREWVSSIGIAGTPTFYADSVKGRFTISADNSKNTAYLQMNSLKPEDTAVYYCAVVDLLRGKLWGQGTLVTVSS | 415 | 2.76 | 0.000588 | 213000
IL1RL1-19 (Fc fusion, not shown: a dimerising Fc or GST, VHH-Fc on IgG2 Fc) VHH: EVQLVESGGGLVQPGGSLRLSCAASGRTDSTASMGWFRQAPGKEREEVAAISWSGGRTYYADSVKGRFTISADNSKNTAYLQMNSLKPEDTAVYYCARLAFQGNTVFDLWGQGTLVTVSS | 486 | 0.104 | 1.29e-05 | 123000
IL1RL1-92 (Fc fusion, not shown: a dimerising Fc or GST, VHH-Fc on IgG2 Fc) VHH: EVQLVESGGGLVQPGGSLRLSCAASGRTHSTASMGWFRQAPGKEREEVAAISWSGGRTYYADSVKGRFTISADNSKNTAYLQMNSLKPEDTAVYYCARLAFQGNTVFDLWGQGTLVTVSS | 484 | 4.4 | 0.000619 | 141000
IL1RL1-16 (Fc fusion, not shown: a dimerising Fc or GST, VHH-Fc on IgG2 Fc) VHH: EVQLVESGGGLVQPGGSLRLSCAASGFSLDYYGMGWFRQAPGKEREGVATINWSGATSYADSVKGRFTISADNSKNTAYLQMNSLKPEDTAVYYCAIPGVWGQGTLVTVSS | 478 | 5.71 | 0.0011 | 193000
IL1RL1-25 (Fc fusion, not shown: a dimerising Fc or GST, VHH-Fc on IgG2 Fc) VHH: EVQLVESGGGLVQPGGSLRLSCAASGGTFNGRAMGWFRQAPGKEREGVATINSGGGTNYADSVKGRFTISADNSKNTAYLQMNSLKPEDTAVYYCALRRLSPPPLLDWGQGTLVTVSS | 69.5 | 1.47 | 0.000392 | 267000
IL1RL1-14 (Fc fusion, not shown: a dimerising Fc or GST, VHH-Fc on IgG2 Fc) VHH: EVQLVESGGGLVQPGGSLRLSCAASGDISSIVAMGWFRQAPGKEREWVSSIDTGGGSNIVYADSVKGRFTISADNSKNTAYLQMNSLKPEDTAVYYCAAGLLDVQYVRQAAGYSWGQGTLVTVSS | 515 | ≤ 0.0744 | ≤ 1e-05 | 134000
IL1RL1-10 (Fc fusion, not shown: a dimerising Fc or GST, VHH-Fc on IgG2 Fc) VHH: EVQLVESGGGLVQPGGSLRLSCAASGRTSNIYAMGWFRQAPGKEREWVASISTSGSTITPYADSVKGRFTISADNSKNTAYLQMNSLKPEDTAVYYCAAVYVSTWGNGYDWGQGTLVTVSS | 398 | 2.02 | 0.000241 | 119000
IL1RL1-11 (Fc fusion, not shown: a dimerising Fc or GST, VHH-Fc on IgG2 Fc) VHH: EVQLVESGGGLVQPGGSLRLSCAASGRTFNWYAMGWFRQAPGKEREWVSSIGIAGTPTFYADSVKGRFTISADNSKNTAYLQMNSLKPEDTAVYYCAAVSSNSETFDWGQGTLVTVSS | 446 | 12.9 | 0.000681 | 52800
IL1RL1-39 (Fc fusion, not shown: a dimerising Fc or GST, VHH-Fc on IgG2 Fc) VHH: EVQLVESGGGLVQPGGSLRLSCAASGGTFSVYAMGWFRQAPGKEREAVASISTSGGSTYYADSVKGRFTISADNSKNTAYLQMNSLKPEDTAVYYCAIGGTLYDRRRFEWGQGTLVTVSS | 267 | 0.688 | 5.5e-05 | 80000
IL1RL1-22 (Fc fusion, not shown: a dimerising Fc or GST) VHH: EVQLVESGGGLVQPGGSLRLSCAASGRTSNIYAMGWFRQAPGKEREWVASISTSGSTITPYADSVKGRFTISADNSKNTAYLQMNSLKPEDTAVYYCAIAHGSSTYNWGQGTLVTVSS | 294 | 1.36 | 0.000243 | 179000
IL1RL1-27 (Fc fusion, not shown: a dimerising Fc or GST, VHH-Fc on IgG2 Fc) VHH: EVQLVESGGGLVQPGGSLRLSCAASGGTISTYAIGWFRQAPGKEREGVAAISPGNNTHYADSVKGRFTISADNSKNTAYLQMNSLKPEDTAVYYCAARPVRVDDISLPVGFDWGQGTLVTVSS | 450 | 3.7 | 0.000372 | 101000
IL1RL1-23 (Fc fusion, not shown: a dimerising Fc or GST, VHH-Fc on IgG2 Fc) VHH: EVQLVESGGGLVQPGGSLRLSCAASGRTFSTASMGWFRQAPGKEREWVASISTSGSTITPYADSVKGRFTISADNSKNTAYLQMNSLKPEDTAVYYCAVVDLLRGKLWGQGTLVTVSS | 526 | ≤ 0.188 | ≤ 1e-05 | 53100
IL1RL1-12 (Fc fusion, not shown: a dimerising Fc or GST, VHH-Fc on IgG2 Fc) VHH: EVQLVESGGGLVQPGGSLRLSCAASGSIFGLNAMGWFRQAPGKEREFVAAISRFGSTDYADSVKGRFTISADNSKNTAYLQMNSLKPEDTAVYYCARSYCTADSCYSSWFDPWGQGTLVTVSS | 437 | 4.08 | 0.000326 | 80100
IL1RL1-40 (Fc fusion, not shown: a dimerising Fc or GST, VHH-Fc on IgG2 Fc) VHH: EVQLVESGGGLVQPGGSLRLSCAASGRTFSDYVMGWFRQAPGKEREIVAAIAWTGTTDYADSVKGRFTISADNSKNTAYLQMNSLKPEDTAVYYCAARIRGKVTVDNFDYAWGQGTLVTVSS | 415 | 7.31 | 0.00116 | 159000
IL1RL1-24 (Fc fusion, not shown: a dimerising Fc or GST, VHH-Fc on IgG2 Fc) VHH: EVQLVESGGGLVQPGGSLRLSCAASGGTAYAMGWFRQAPGKEREWVASISTSGSTITPYADSVKGRFTISADNSKNTAYLQMNSLKPEDTAVYYCAAASRSGSGYDWGQGTLVTVSS | 438 | 1.62 | 0.000232 | 143000
IL1RL1-59 (Fc fusion, not shown: a dimerising Fc or GST, VHH-Fc on IgG2 Fc) VHH: EVQLVESGGGLVQPGGSLRLSCAASGGTAYAMGWFRQAPGKEREWVASISTSGSTITPYADSVKGRFTISADNSKNTAYLQMNSLKPEDTAVYYCAANVGVTGSYEWGQGTLVTVSS | 374 | ≤ 0.0748 | ≤ 1e-05 | 134000
IL1RL1-21 (Fc fusion, not shown: a dimerising Fc or GST, VHH-Fc on IgG2 Fc) VHH: EVQLVESGGGLVQPGGSLRLSCAASGTITSAVFMGWFRQAPGKEREFVAGIIGSGGATYYADSVKGRFTISADNSKNTAYLQMNSLKPEDTAVYYCAASRYARERDVHAYDWGQGTLVTVSS | 521 | 0.409 | 5.04e-05 | 123000
IL1RL1-26 (Fc fusion, not shown: a dimerising Fc or GST, VHH-Fc on IgG2 Fc) VHH: EVQLVESGGGLVQPGGSLRLSCAASGLTTVYTMGWFRQAPGKERESVASISWTGGTTYYADSVKGRFTISADNSKNTAYLQMNSLKPEDTAVYYCAAIAHEEGVYRWDWGQGTLVTVSS | 310 | 3.12 | 0.000618 | 198000
